Assay results published in patent US20240036044A1.

Biological target: recombinant SARS-CoV-2 Spike protein antigen (Z03501, Genscript) (SARS-CoV-2) (UniProt P0DTC2)

Substance: Monoclonal antibody against the SARS-CoV-2 Spike protein (A02038, Genscript)
- Kd: 2.39 nM
- koff: 0.000603 s⁻¹
- kon: 252000 M⁻¹ s⁻¹
